Common to all, as to test: cleavage_in_vitro
Data set [1] concerns T1, HpyF30I restriction endonuclease (Helicobacter pylori RFL30).
T1 sequence: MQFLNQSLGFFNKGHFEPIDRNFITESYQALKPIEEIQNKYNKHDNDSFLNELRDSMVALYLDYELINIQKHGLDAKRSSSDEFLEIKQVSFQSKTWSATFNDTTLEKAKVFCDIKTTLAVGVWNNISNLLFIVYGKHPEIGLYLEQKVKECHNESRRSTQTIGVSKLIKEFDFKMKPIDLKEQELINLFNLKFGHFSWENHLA

For data set [2], the target named is T2, TaqI restriction endonuclease (Thermus aquaticus) (UniProt P14386).
T2 sequence: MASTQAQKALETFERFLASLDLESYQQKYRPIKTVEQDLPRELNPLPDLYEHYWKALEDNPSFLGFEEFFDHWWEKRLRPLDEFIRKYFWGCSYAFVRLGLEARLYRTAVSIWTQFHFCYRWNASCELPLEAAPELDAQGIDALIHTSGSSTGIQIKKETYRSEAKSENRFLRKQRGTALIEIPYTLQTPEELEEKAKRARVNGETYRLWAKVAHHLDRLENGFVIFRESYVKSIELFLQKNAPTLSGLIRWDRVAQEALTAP
The settings on record: 65 C.

The test system of data set [3] is PaeR7I restriction endonuclease.
The mark [4] stands for this setting: about 50% 5mC at the TCGA site, partial, site about 50% methylated.

lambda DNA (dam-): the activity in data set [1] (SdaI buffer, 15 mM Mg acetate, 37 C, qPCR) is 0.6 % undigested; in data set [2] (TaqI buffer, qPCR) it was 0.06 % undigested.
As for DAPK1 promoter region, the activity in data set [1] (SdaI buffer, 37 C, qPCR) was 2 % undigested; in data set [3] (buffer 4, 37 C, qPCR), 0.8 % undigested; in data set [2] (qPCR) it was 0.7 % undigested.
Consider 130 bp lambda PCR fragment C, for which the activity amounted to 7 % undigested in data set [1] (with Jurkat genomic DNA, SdaI buffer, 37 C) and 0.7 % undigested in data set [2] (with Jurkat genomic DNA).
On to 130 bp lambda PCR fragment m5C, for which the activity in data set [1] (5mC in both strands, with Jurkat genomic DNA, SdaI buffer, 37 C) is 100 % undigested; in data set [2] (5mC in both strands, with Jurkat genomic DNA), 0.7 % undigested.
In the case of lambda DNA (dam-) M.SssI methylated, the activity in data set [1] (5mC at CpG, both strands, SdaI buffer, 37 C, qPCR) stood at 100 % undigested; in data set [2] (5mC at CpG, both strands, TaqI buffer, qPCR) it was 0.2 % undigested.
Consider RASSFA1 promoter region, for which the activity in data set [1] (setting [4]) was found to be 50 % undigested; in data set [3] (setting [4]), 50 % undigested; in data set [2] (about 50% 5mC at the TCGA site, qPCR), 0.8 % undigested.
